From paper PMC4633990

Columns and labels:
[1] = target: HIV-1 Env on HIV-1 IIIb-infected CEM-NKr-CCR5 cells (CEM-IIIb) (HIV-1 IIIb) (UniProt P04578)
[2] = target: HIV-1 Env of strain ZM53.12 (clade C) on pseudovirus ZM53.12.SG3 (HIV-1 ZM53.12 (clade C))
[3] = target: HIV-1 Env of strain AC10.29 (clade B) on pseudovirus AC10.29.SG3 (HIV-1 AC10.29 (clade B))

VRC07-αCD3 bispecific immunomodulatory protein (bispecific antibody)
IFN-γ intracellular cytokine staining of human CD4 T cells co-cultured with HIV-infected CEM cells and 0.5 μg ml^−1 protein, relative to unstimulated CD4 T cells (1.4-fold in the absence of HIV-1) [1]: 9 fold | IC50 of neutralisation of Env-pseudotyped virus ZM53.12.SG3 (clade C), TZM-bl target cells, luciferase [2]: 0.24 µg/mL | IC50 of neutralisation of Env-pseudotyped virus AC10.29.SG3 (clade B), TZM-bl target cells, luciferase [3]: 0.346 µg/mL
